Measurements published in the supplement of paper PMC10567573.

B1: PKD2L1 (parent)
chain: TLARCAKDILGFAVMFFIVFFAYA
B2: KCNAB2 (parent)
chain: YVDVVFANRPDPNTPMEETVRAMT

Variants of: B1
Assay: protein stability index of a GFP-peptide fusion (GPS, HEK-293T) (PSI 1-6); higher = more stable
Conditions: c terminus: a fixed tail appended
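Note: lentivirally expressed fusions sorted by FACS into six bins by GFP to DsRed ratio, PSI derived from sequencing read proportions per bin multiplied by bin number.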

In order of rising protein stability index:
1. L2V  1.24
2. A3N  1.53
3. A6G  1.59
4. C5H  1.6
5. T1W  1.62
6. L2W  1.67
7. C5P  1.71
8. A3G  1.71
9. T1R  1.72
10. A3L  1.75
11. A3R  1.81
12. L2K  1.84
13. A3W  1.87
14. C5N  1.9
15. A3V  1.94
16. T1L  2
17. T1I  2
18. C5R  2.01
19. T1P  2.03
20. C5E  2.09
21. T1S  2.19
22. C5Y  2.22
23. C5S  2.27
24. R4C  2.28
25. T1H  2.29
26. C5Q  2.29
27. L2H  2.35
28. T1A  2.36
29. R4Q  2.37
30. A3H  2.4
31. C5K  2.48
32. C5A  2.49
33. C5V  2.5
34. L2N  2.5
35. L2Y  2.51
36. A3D  2.56
37. C5G  2.59
38. A6H  2.59
39. R4K  2.6
40. C5D  2.61
41. A3P  2.64
42. A6F  2.64
43. R4I  2.64
44. R4P  2.65
45. T1N  2.67
46. R4F  2.68
47. A3Q  2.7
48. R4A  2.72
49. L2S  2.73
50. A3K  2.74
51. C5L  2.78
52. R4N  2.79
53. L2E  2.8
54. T1V  2.81
55. A3C  2.83
56. A6C  2.87
57. T1D  2.96
58. T1C  2.98
59. C5I  3
60. L2G  3.03
61. R4L  3.07
62. A3E  3.11
63. T1F  3.18
64. R4Y  3.28
65. L2P  3.29
66. R4W  3.31
67. L2Q  3.4
68. L2C  3.44
69. C5M  3.55
70. A6E  3.58
71. A3T  3.62
72. L2R  3.68
73. L2D  3.71
74. L2M  3.8
75. L2A  3.81
76. R4G  3.84
77. T1K  3.97
78. C5T  4.06
79. L2T  4.12
80. T1M  4.2
81. A3I  4.3
82. R4V  4.36
83. C5F  4.37
84. A3Y  4.87

Variants of: B2
Assay: as above
Conditions: c terminus: a fixed tail appended

In order of falling protein stability index:
1. V2E  4.98
2. V2D  4.91
3. Y1N  4.65
4. Y1E  4.6
5. Y1D  4.52
6. D3I  4.3
7. V2S  4.24
8. F6D  4.17
9. V2R  4.13
10. Y1G  4.12
11. Y1Q  4.06
12. Y1H  4.05
13. Y1K  3.77
14. V2G  3.76
15. Y1M  3.69
16. V2P  3.69
17. D3M  3.61
18. V2M  3.61
19. Y1R  3.55
20. Y1L  3.4
21. V2Q  3.32
22. A7V  3.18
23. F6G  3.16
24. Y1V  3.15
25. P10W  3.14
26. F6T  3.11
27. N8M  3.09
28. V2L  3.09
29. A7F  3.08
30. V5F  3.07
31. V2Y  3.07
32. E18M  3.06
33. V4G  3.05
34. T24F  3.03
35. V5M  3.01
36. D3S  2.99
37. E18I  2.98
38. E18H  2.97
39. N13W  2.88
40. N8W  2.85
41. N8F  2.85
42. D3G  2.85
43. R9P  2.84
44. E17T  2.84
45. V2F  2.81
46. M23R  2.81
47. P10F  2.8
48. D3W  2.8
49. F6S  2.79
50. D11A  2.79
51. R21F  2.78
52. T14H  2.77
53. R9S  2.76
54. E17N  2.76
55. D11T  2.76
56. N13I  2.76
57. V20W  2.74
58. R9W  2.72
59. T24W  2.72
60. D3F  2.71
61. P10L  2.7
62. N8T  2.68
63. A22D  2.67
64. E18A  2.67
65. P15C  2.67
66. P10G  2.65
67. A7Y  2.64
68. E18Y  2.64
69. P10M  2.62
70. E17K  2.62
71. E18L  2.56
72. M16R  2.54
73. Y1C  2.52
74. V4R  2.52
75. T14P  2.51
76. E17Y  2.5
77. D11Q  2.5
78. V5G  2.49
79. A22W  2.49
80. P10D  2.47
81. P15F  2.47
82. T24Y  2.46
83. D11F  2.46
84. V5R  2.45
85. A7W  2.45
86. P10C  2.43
87. D11Y  2.42
88. T14Y  2.4
89. R21K  2.35
90. D3Y  2.34
91. N13S  2.34
92. R21N  2.33
93. V4W  2.33
94. T14F  2.32
95. A22M  2.32
96. P12G  2.31
97. D3C  2.31
98. V5A  2.29
99. A22V  2.29
100. E17R  2.29
101. N13D  2.29
102. A22F  2.28
103. P15M  2.28
104. D11H  2.28
105. P10K  2.27
106. P12A  2.27
107. R9L  2.27
108. R21W  2.27
109. R21E  2.27
110. A22H  2.27
111. E18P  2.27
112. A22C  2.26
113. V4D  2.26
114. T24P  2.24
115. M16N  2.2
116. M16W  2.2
117. T14K  2.2
118. V5L  2.2
119. A7E  2.19
120. M16Y  2.18
121. R21Q  2.18
122. F6C  2.18
123. N13K  2.18
124. R9G  2.17
125. E17P  2.17
126. P12K  2.16
127. R9E  2.15
128. F6L  2.15
129. A7Q  2.15
130. N13H  2.15
131. M23P  2.14
132. V5D  2.13
133. F6Y  2.13
134. D3K  2.13
135. P10H  2.12
136. T14Q  2.12
137. E17D  2.12
138. R21P  2.1
139. E18F  2.1
140. E18R  2.1
141. P15Q  2.1
142. A7H  2.09
143. N13F  2.09
144. A22K  2.08
145. V20G  2.07
146. D3H  2.07
147. V2I  2.07
148. P10N  2.06
149. E17V  2.06
150. M23W  2.06
151. D11K  2.05
152. P12W  2.04
153. D11M  2.04
154. P12M  2.03
155. P12F  2.02
156. R9F  2.02
157. E18C  2.02
158. T19V  2.01
159. D3N  2.01
160. D3A  2
161. N13A  2
162. F6I  1.99
163. A7R  1.97
164. R21T  1.96
165. N13L  1.96
166. M16G  1.95
167. P15T  1.94
168. T19S  1.93
169. T14S  1.93
170. P15G  1.91
171. D3Q  1.91
172. T19Q  1.9
173. V5C  1.9
174. P15I  1.9
175. T19L  1.89
176. A22R  1.89
177. D11L  1.89
178. N13C  1.89
179. A7I  1.88
180. T24S  1.88
181. P15V  1.87
182. T19A  1.86
183. T19I  1.85
184. T19W  1.85
185. P10A  1.84
186. R21A  1.84
187. N8V  1.83
188. P12I  1.83
189. E18N  1.83
190. P10V  1.82
191. V20Q  1.82
192. V20R  1.82
193. D3T  1.82
194. T24K  1.82
195. M23I  1.82
196. M16K  1.8
197. V20Y  1.8
198. N8D  1.79
199. T19M  1.79
200. R9A  1.78
201. T24I  1.78
202. M23V  1.78
203. M16F  1.77
204. R21S  1.77
205. Y1W  1.74
206. A22G  1.74
207. A7C  1.74
208. A22Y  1.73
209. V20M  1.71
210. V4Q  1.71
211. N8K  1.7
212. T14E  1.7
213. R9T  1.7
214. P10Y  1.69
215. A22P  1.69
216. D11P  1.67
217. D11N  1.67
218. T19R  1.66
219. T19F  1.66
220. P12S  1.66
221. R9H  1.66
222. M23H  1.66
223. M16V  1.65
224. P12D  1.65
225. V5Q  1.65
226. M16I  1.64
227. E17L  1.64
228. E18T  1.64
229. T19P  1.61
230. R9C  1.6
231. V20K  1.59
232. V5W  1.59
233. R21V  1.58
234. E17I  1.58
235. T14V  1.56
236. P12T  1.56
237. R21D  1.56
238. R21M  1.56
239. M23G  1.56
240. T14W  1.54
241. R21C  1.5
242. T24V  1.47
243. D11R  1.47
244. P12R  1.46
245. V4H  1.39
246. P15H  1.35
247. T24G  1.35
248. M16T  1.33
249. A22T  1.33
250. N13T  1.3
